Test results published in patent US20040176301A1 (CYCLACEL, published 2004).
Ends that are not written are not given here.

What was measured:
CDK2/Cyclin E complex = CDK2/Cyclin E complex (UniProt P24941 1-298; P24864 1-410); experiment: cell-based or functional assay
CDK4/Cyclin D1 complex = CDK4/Cyclin D1 complex (UniProt P11802 1-303; P24385 1-295); experiment: cell-based or functional assay
Throughout, for % Inhibition, cyclin D1/CDK4 kinase: test concentration or dose not given here.
Throughout, for % Inhibition, cyclin E/CDK2 kinase: test concentration or dose not given here.

Sequence of CDK4/Cyclin D1 complex (P11802 other isoform, or with tags, fused parts or gaps, chain 1 of 2): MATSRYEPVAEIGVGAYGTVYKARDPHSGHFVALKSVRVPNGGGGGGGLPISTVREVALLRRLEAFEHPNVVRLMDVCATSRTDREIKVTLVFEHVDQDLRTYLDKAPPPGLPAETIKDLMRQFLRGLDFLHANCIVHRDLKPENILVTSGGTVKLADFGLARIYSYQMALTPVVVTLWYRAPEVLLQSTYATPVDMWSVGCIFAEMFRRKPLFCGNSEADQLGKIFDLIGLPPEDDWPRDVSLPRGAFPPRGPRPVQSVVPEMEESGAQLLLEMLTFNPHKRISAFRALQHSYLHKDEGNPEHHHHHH
Sequence of CDK4/Cyclin D1 complex (P24385 whole entry, chain 2 of 2): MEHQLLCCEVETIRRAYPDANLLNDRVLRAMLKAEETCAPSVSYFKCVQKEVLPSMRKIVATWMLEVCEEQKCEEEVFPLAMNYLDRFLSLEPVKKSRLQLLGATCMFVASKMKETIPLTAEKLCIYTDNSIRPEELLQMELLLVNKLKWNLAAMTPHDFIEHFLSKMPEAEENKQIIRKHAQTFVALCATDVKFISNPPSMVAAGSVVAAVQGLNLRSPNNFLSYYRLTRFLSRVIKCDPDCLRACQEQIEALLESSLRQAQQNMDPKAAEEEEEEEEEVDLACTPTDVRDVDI

## HSKRRL-NH2 [HSKRRL-NH2]
CDK2/Cyclin E complex
  % Inhibition, cyclin E/CDK2 kinase: 45%
  IC50, cyclin E/CDK2 kinase, GST-pRb: > 200 µM

## YHSKR-NH2 [YHSKR-NH2]
CDK2/Cyclin E complex
  % Inhibition, cyclin E/CDK2 kinase: 25%
CDK4/Cyclin D1 complex
  % Inhibition, cyclin D1/CDK4 kinase: 10%

## TSMTDFYHSKRR-NH2 [TSMTDFYHSKRR-NH2]
CDK2/Cyclin E complex
  % Inhibition, cyclin E/CDK2 kinase: 35%
CDK4/Cyclin D1 complex
  % Inhibition, cyclin D1/CDK4 kinase: 30%

## HSKRRLI-NH2 [HSKRRLI-NH2]
CDK2/Cyclin E complex
  % Inhibition, cyclin E/CDK2 kinase: 35%
CDK4/Cyclin D1 complex
  % Inhibition, cyclin D1/CDK4 kinase: 10%

## FYHSKRR-NH2 [FYHSKRR-NH2]
CDK2/Cyclin E complex
  % Inhibition, cyclin E/CDK2 kinase: 45%
  IC50, cyclin E/CDK2 kinase, GST-pRb: > 200 µM
CDK4/Cyclin D1 complex
  % Inhibition, cyclin D1/CDK4 kinase: 20%

## YHSKRR-NH2 [YHSKRR-NH2]
CDK2/Cyclin E complex
  % Inhibition, cyclin E/CDK2 kinase: 40%
CDK4/Cyclin D1 complex
  % Inhibition, cyclin D1/CDK4 kinase: 10%

## DFYASKRRLIFS-NH2 [DFYASKRRLIFS-NH2]
CDK2/Cyclin E complex
  % Inhibition, cyclin E/CDK2 kinase: 80%
  IC50, cyclin E/CDK2 kinase, GST-pRb: 5.1 µM
CDK4/Cyclin D1 complex
  % Inhibition, cyclin D1/CDK4 kinase: 60%
  IC50, cyclin D1/CDK4 kinase, GST-pRb: 73 µM

## H-KRRLIF-NH2 [H-Lys-Arg-Arg-Leu-Ile-Phe-NH2]
CDK2/Cyclin E complex
  % Inhibition, cyclin E/CDK2 kinase: 80%
  IC50, cyclin E/CDK2 kinase, GST-pRb: 1.1 µM
CDK4/Cyclin D1 complex
  % Inhibition, cyclin D1/CDK4 kinase: 72%
  IC50, cyclin D1/CDK4 kinase, GST-pRb: > 200 µM

## KRRLIFSK-NH2 [KRRLIFSK-NH2]
CDK2/Cyclin E complex
  % Inhibition, cyclin E/CDK2 kinase: 60%
  IC50, cyclin E/CDK2 kinase, GST-pRb: > 200 µM
CDK4/Cyclin D1 complex
  % Inhibition, cyclin D1/CDK4 kinase: 20%

## TDFYHSKRRLIF-NH2 [p21 (148-159) TDFYHSKRRLIF-NH2]
CDK2/Cyclin E complex
  % Inhibition, cyclin E/CDK2 kinase: 85%
  IC50, cyclin E/CDK2 kinase, GST-pRb: 2.2 µM
CDK4/Cyclin D1 complex
  % Inhibition, cyclin D1/CDK4 kinase: 72%

## DFYHSKRRAIFS-NH2 [DFYHSKRRAIFS-NH2]
CDK2/Cyclin E complex
  % Inhibition, cyclin E/CDK2 kinase: 30%
CDK4/Cyclin D1 complex
  % Inhibition, cyclin D1/CDK4 kinase: 30%

## FYHSKRRL-NH2 [FYHSKRRL-NH2]
CDK2/Cyclin E complex
  % Inhibition, cyclin E/CDK2 kinase: 48%
  IC50, cyclin E/CDK2 kinase, GST-pRb: > 200 µM
CDK4/Cyclin D1 complex
  % Inhibition, cyclin D1/CDK4 kinase: 20%

## MTDFYHSKRRLI-NH2 [MTDFYHSKRRLI-NH2]
CDK2/Cyclin E complex
  % Inhibition, cyclin E/CDK2 kinase: 35%
CDK4/Cyclin D1 complex
  % Inhibition, cyclin D1/CDK4 kinase: 11%

## DFYHSKR-NH2 [DFYHSKR-NH2]
CDK2/Cyclin E complex
  % Inhibition, cyclin E/CDK2 kinase: 50%
  IC50, cyclin E/CDK2 kinase, GST-pRb: 200 µM

## AFYHSKRRLIFS-NH2 [AFYHSKRRLIFS-NH2]
CDK2/Cyclin E complex
  % Inhibition, cyclin E/CDK2 kinase: 70%
  IC50, cyclin E/CDK2 kinase, GST-pRb: 11 µM
CDK4/Cyclin D1 complex
  % Inhibition, cyclin D1/CDK4 kinase: 72%
  IC50, cyclin D1/CDK4 kinase, GST-pRb: 22 µM

## YHSKRRL-NH2 [YHSKRRL-NH2]
CDK2/Cyclin E complex
  % Inhibition, cyclin E/CDK2 kinase: 30%
  IC50, cyclin E/CDK2 kinase, GST-pRb: > 200 µM
CDK4/Cyclin D1 complex
  % Inhibition, cyclin D1/CDK4 kinase: 10%

## YHSKRRLIFSKR-NH2 [YHSKRRLIFSKR-NH2]
CDK2/Cyclin E complex
  % Inhibition, cyclin E/CDK2 kinase: 80%
  IC50, cyclin E/CDK2 kinase, GST-pRb: 17.6 µM
CDK4/Cyclin D1 complex
  % Inhibition, cyclin D1/CDK4 kinase: 60%
  IC50, cyclin D1/CDK4 kinase, GST-pRb: 45 µM

## DFYHSKRRLAFS-NH2 [DFYHSKRRLAFS-NH2]
CDK2/Cyclin E complex
  % Inhibition, cyclin E/CDK2 kinase: 80%
  IC50, cyclin E/CDK2 kinase, GST-pRb: 14 µM
CDK4/Cyclin D1 complex
  % Inhibition, cyclin D1/CDK4 kinase: 61%
  IC50, cyclin D1/CDK4 kinase, GST-pRb: 53 µM

## FYHSKR-NH2 [FYHSKR-NH2]
CDK2/Cyclin E complex
  % Inhibition, cyclin E/CDK2 kinase: 20%
CDK4/Cyclin D1 complex
  % Inhibition, cyclin D1/CDK4 kinase: 10%

## DFAHSKRRLIFS-NH2 [DFAHSKRRLIFS-NH2]
CDK2/Cyclin E complex
  % Inhibition, cyclin E/CDK2 kinase: 80%
  IC50, cyclin E/CDK2 kinase, GST-pRb: 5.3 µM
CDK4/Cyclin D1 complex
  % Inhibition, cyclin D1/CDK4 kinase: 56%
  IC50, cyclin D1/CDK4 kinase, GST-pRb: 121 µM

## FYHSKRRLIF-NH2 [p21 (150-159) FYHSKRRLIF-NH2]
CDK2/Cyclin E complex
  % Inhibition, cyclin E/CDK2 kinase: 80%
CDK4/Cyclin D1 complex
  % Inhibition, cyclin D1/CDK4 kinase: 70%

## DFYHSKARLIFS-NH2 [DFYHSKARLIFS-NH2]
CDK2/Cyclin E complex
  % Inhibition, cyclin E/CDK2 kinase: 25%
CDK4/Cyclin D1 complex
  % Inhibition, cyclin D1/CDK4 kinase: 30%

## FYHSKRRLIFSK-NH2 [FYHSKRRLIFSK-NH2]
CDK2/Cyclin E complex
  % Inhibition, cyclin E/CDK2 kinase: 70%
  IC50, cyclin E/CDK2 kinase, GST-pRb: 26 µM
CDK4/Cyclin D1 complex
  % Inhibition, cyclin D1/CDK4 kinase: 70%
  IC50, cyclin D1/CDK4 kinase, GST-pRb: 41 µM

## FYHSKRRLI-NH2 [FYHSKRRLI-NH2]
CDK2/Cyclin E complex
  % Inhibition, cyclin E/CDK2 kinase: 45%
CDK4/Cyclin D1 complex
  % Inhibition, cyclin D1/CDK4 kinase: 20%

## DAYHSKRRLIFS-NH2 [DAYHSKRRLIFS-NH2]
CDK2/Cyclin E complex
  % Inhibition, cyclin E/CDK2 kinase: 85%
  IC50, cyclin E/CDK2 kinase, GST-pRb: 5.9 µM
CDK4/Cyclin D1 complex
  % Inhibition, cyclin D1/CDK4 kinase: 76%
  IC50, cyclin D1/CDK4 kinase, GST-pRb: 37 µM

## YHSKRRLI-NH2 [YHSKRRLI-NH2]
CDK2/Cyclin E complex
  % Inhibition, cyclin E/CDK2 kinase: 45%
  IC50, cyclin E/CDK2 kinase, GST-pRb: > 200 µM
CDK4/Cyclin D1 complex
  % Inhibition, cyclin D1/CDK4 kinase: 15%

## SKRRLIF-NH2 [SKRRLIF-NH2]
CDK2/Cyclin E complex
  % Inhibition, cyclin E/CDK2 kinase: 80%
  IC50, cyclin E/CDK2 kinase, GST-pRb: 7.7 µM
CDK4/Cyclin D1 complex
  % Inhibition, cyclin D1/CDK4 kinase: 72%
  IC50, cyclin D1/CDK4 kinase, GST-pRb: 54 µM

## YHSKRRLIF-NH2 [p21 (151-159) YHSKRRLIF-NH2]
CDK2/Cyclin E complex
  % Inhibition, cyclin E/CDK2 kinase: 80%
  IC50, cyclin E/CDK2 kinase, GST-pRb: 7 µM
CDK4/Cyclin D1 complex
  % Inhibition, cyclin D1/CDK4 kinase: 70%

## SMTDFYHSKRRL-NH2 [SMTDFYHSKRRL-NH2]
CDK2/Cyclin E complex
  % Inhibition, cyclin E/CDK2 kinase: 40%
CDK4/Cyclin D1 complex
  % Inhibition, cyclin D1/CDK4 kinase: 18%

## HSKRRLIFSKRK-NH2 [HSKRRLIFSKRK-NH2]
CDK2/Cyclin E complex
  % Inhibition, cyclin E/CDK2 kinase: 90%
  IC50, cyclin E/CDK2 kinase, GST-pRb: 8.7 µM
CDK4/Cyclin D1 complex
  % Inhibition, cyclin D1/CDK4 kinase: 80%
  IC50, cyclin D1/CDK4 kinase, GST-pRb: 34 µM

## SKRRLIFSKRKP-NH2 [SKRRLIFSKRKP-NH2]
CDK2/Cyclin E complex
  % Inhibition, cyclin E/CDK2 kinase: 70%
  IC50, cyclin E/CDK2 kinase, GST-pRb: 46 µM
CDK4/Cyclin D1 complex
  % Inhibition, cyclin D1/CDK4 kinase: 40%

## DFYHSKRALIFS-NH2 [DFYHSKRALIFS-NH2]
CDK2/Cyclin E complex
  % Inhibition, cyclin E/CDK2 kinase: 70%
  IC50, cyclin E/CDK2 kinase, GST-pRb: 30 µM
CDK4/Cyclin D1 complex
  % Inhibition, cyclin D1/CDK4 kinase: 30%

## DFYHSARRLIFS-NH2 [DFYHSARRLIFS-NH2]
CDK2/Cyclin E complex
  % Inhibition, cyclin E/CDK2 kinase: 80%
  IC50, cyclin E/CDK2 kinase, GST-pRb: 12.9 µM
CDK4/Cyclin D1 complex
  % Inhibition, cyclin D1/CDK4 kinase: 50%
  IC50, cyclin D1/CDK4 kinase, GST-pRb: 200 µM
